{"source": "paper PMC10164549", "molecules": {"B1": {"name": "28 bp DNA duplex spiked with 1% 6-FAM-labeled strand (dsDNA)", "DNA 1": "GGGGTTTTCGCCAGCTGGCGTTTTGGGG", "DNA 2": "CCCCAAAACGCCAGCTGGCGAAAACCCC"}, "B2": {"name": "28 bp DNA duplex (28bpDuplexF/R) (dsDNA)", "DNA 1": "GGGGTTTTCGCCAGCTGGCGTTTTGGGG", "DNA 2": "CCCCAAAACGCCAGCTGGCGAAAACCCC"}}, "key": {"[1]": {"molecular_target": "Salmonella enterica serovar Montevideo DpdB, His6 tag removed (Salmonella enterica subsp. enterica serotype Montevideo)", "assay": "SEC"}, "[2]": {"molecular_target": "Salmonella enterica serovar Montevideo DpdB, His6-tagged (Salmonella enterica subsp. enterica serotype Montevideo)", "assay": "SEC-SAXS + SEC-MALS"}, "[3]": {"molecular_target": "T1, DpdA wild type (Salmonella enterica subsp. enterica …, UniProt P0DW33 1-416)", "T1 sequence": "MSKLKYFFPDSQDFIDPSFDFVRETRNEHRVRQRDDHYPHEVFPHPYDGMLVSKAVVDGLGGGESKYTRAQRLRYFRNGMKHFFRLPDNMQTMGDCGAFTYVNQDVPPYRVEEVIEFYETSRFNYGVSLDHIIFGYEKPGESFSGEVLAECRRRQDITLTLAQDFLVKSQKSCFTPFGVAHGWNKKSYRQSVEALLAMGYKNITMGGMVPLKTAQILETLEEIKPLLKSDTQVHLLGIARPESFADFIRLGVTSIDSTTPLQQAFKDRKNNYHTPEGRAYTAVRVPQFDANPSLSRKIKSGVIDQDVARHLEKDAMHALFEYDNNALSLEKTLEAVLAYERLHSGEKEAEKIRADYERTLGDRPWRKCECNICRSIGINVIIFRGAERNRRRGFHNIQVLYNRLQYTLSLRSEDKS", "assay": "EMSA"}, "[4]": {"molecular_target": "T2, DpdA F265A (Salmonella enterica subsp. enterica …, UniProt P0DW33 1-416, F265A)", "T2 sequence": "T1 sequence with F265A", "assay": "EMSA"}, "[5]": {"molecular_target": "T3, DpdA D95A (Salmonella enterica subsp. enterica …, UniProt P0DW33 1-416, D95A)", "T3 sequence": "T1 sequence with D95A", "assay": "SEC-SAXS/MALS"}}, "note": "Changes are numbered by the printed parent chain."}
{"molecule": "Salmonella enterica serovar Montevideo DpdB, His6 tag removed (enzyme)", "values": [{"measurement": "stoichiometry N", "setting": "[1]", "result": 2}]}
{"molecule": "Salmonella enterica serovar Montevideo DpdB, His6-tagged (enzyme)", "values": [{"measurement": "stoichiometry N", "setting": "[2]", "result": 2}]}
{"molecule": "B1", "values": [{"measurement": "Kd", "setting": "[3]", "result": "3400 ± 200", "unit": "nM"}, {"measurement": "Kd", "setting": "[4]", "result": "2300 ± 100", "unit": "nM"}]}
{"molecule": "B2", "values": [{"measurement": "binding result", "setting": "[5]", "result": "binds"}]}
